{"source": "paper PMC9482650", "about": "“Quantitative fragmentomics allow affinity mapping of interactomes” (Nature Communications, 2022)", "binders": {"B1": {"name": "TTC24, A2A3L6 (peptide)", "chain": "PMESGICTIV"}}, "data": [{"target": "FRMPD4, Q14CM0", "sequence (Q14CM0 67-160)": "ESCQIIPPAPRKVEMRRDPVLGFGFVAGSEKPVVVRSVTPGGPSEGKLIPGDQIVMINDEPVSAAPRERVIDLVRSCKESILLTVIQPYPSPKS", "test": "holdup assay", "parameters": "key: below the threshold = too weak to quantify, mostly under pKd 3.1 to 4", "details": "plain residues with an end cap or a label only (N-terminal biotin on a linker: ado-ado)", "values": [{"binder": "B1", "pKd": "below the threshold"}]}, {"target": "T1, APBA2_2, Q99767", "T1 sequence (Q99767 654-744, limits assumed, looked up)": "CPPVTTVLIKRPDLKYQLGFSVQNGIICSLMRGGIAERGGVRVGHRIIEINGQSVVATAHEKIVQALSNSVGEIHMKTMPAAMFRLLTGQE", "test": "holdup assay", "parameters": "key: below the threshold = too weak to quantify, mostly under pKd 3.1 to 4", "details": "plain residues with an end cap or a label only (N-terminal biotin on a linker: ado-ado)", "values": [{"binder": "B1", "pKd": "below the threshold"}]}, {"target": "MAGI2_3, Q86UL8", "sequence (Q86UL8 600-682)": "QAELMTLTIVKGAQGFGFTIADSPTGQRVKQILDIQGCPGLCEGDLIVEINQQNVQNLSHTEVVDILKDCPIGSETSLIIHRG", "test": "holdup assay", "parameters": "key: below the threshold = too weak to quantify, mostly under pKd 3.1 to 4", "details": "plain residues with an end cap or a label only (N-terminal biotin on a linker: ado-ado)", "values": [{"binder": "B1", "pKd": "below the threshold"}]}, {"target": "T2, HTRA4, P83105", "T2 sequence (P83105 378-476, limits assumed, looked up)": "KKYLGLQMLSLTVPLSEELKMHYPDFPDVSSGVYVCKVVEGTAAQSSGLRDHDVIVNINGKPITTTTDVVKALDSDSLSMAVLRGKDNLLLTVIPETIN", "test": "holdup assay", "parameters": "key: below the threshold = too weak to quantify, mostly under pKd 3.1 to 4", "details": "plain residues with an end cap or a label only (N-terminal biotin on a linker: ado-ado)", "values": [{"binder": "B1", "pKd": 4.77}]}, {"target": "MAGI2_2, Q86UL8", "sequence (Q86UL8 410-522)": "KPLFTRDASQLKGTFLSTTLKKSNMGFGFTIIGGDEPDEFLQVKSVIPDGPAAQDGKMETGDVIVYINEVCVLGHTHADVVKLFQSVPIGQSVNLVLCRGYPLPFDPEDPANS", "test": "holdup assay", "parameters": "key: below the threshold = too weak to quantify, mostly under pKd 3.1 to 4", "details": "plain residues with an end cap or a label only (N-terminal biotin on a linker: ado-ado)", "values": [{"binder": "B1", "pKd": 4.11}]}, {"target": "T3, ARHGAP21, Q5T5U3", "T3 sequence (Q5T5U3 45-169, limits assumed, looked up)": "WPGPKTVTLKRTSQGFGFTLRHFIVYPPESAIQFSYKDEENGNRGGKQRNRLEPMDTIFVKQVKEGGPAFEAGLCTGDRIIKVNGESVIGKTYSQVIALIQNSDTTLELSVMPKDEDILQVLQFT", "test": "holdup assay", "parameters": "key: below the threshold = too weak to quantify, mostly under pKd 3.1 to 4", "details": "plain residues with an end cap or a label only (N-terminal biotin on a linker: ado-ado)", "values": [{"binder": "B1", "pKd": 3.96}]}, {"target": "GRIP2_7, Q9C0E4", "sequence (Q9C0E4 934-1023)": "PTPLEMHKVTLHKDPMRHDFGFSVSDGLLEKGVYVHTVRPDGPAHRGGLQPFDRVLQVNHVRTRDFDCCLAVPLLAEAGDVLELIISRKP", "test": "holdup assay", "parameters": "key: below the threshold = too weak to quantify, mostly under pKd 3.1 to 4", "details": "plain residues with an end cap or a label only (N-terminal biotin on a linker: ado-ado)", "values": [{"binder": "B1", "pKd": "below the threshold"}]}, {"target": "LAP2, Q96RT1", "sequence (Q96RT1 other isoform, or with tags, fused parts or gaps)": "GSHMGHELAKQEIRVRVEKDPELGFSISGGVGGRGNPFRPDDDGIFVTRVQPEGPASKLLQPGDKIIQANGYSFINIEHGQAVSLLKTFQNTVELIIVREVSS", "test": "holdup assay", "parameters": "key: below the threshold = too weak to quantify, mostly under pKd 3.1 to 4", "details": "plain residues with an end cap or a label only (N-terminal biotin on a linker: ado-ado)", "values": [{"binder": "B1", "pKd": "below the threshold"}]}, {"target": "MAGI2_5, Q86UL8", "sequence (Q86UL8 915-1017)": "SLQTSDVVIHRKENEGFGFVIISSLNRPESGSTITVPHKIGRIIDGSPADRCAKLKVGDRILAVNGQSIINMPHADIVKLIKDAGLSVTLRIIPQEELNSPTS", "test": "holdup assay", "parameters": "key: below the threshold = too weak to quantify, mostly under pKd 3.1 to 4", "details": "plain residues with an end cap or a label only (N-terminal biotin on a linker: ado-ado)", "values": [{"binder": "B1", "pKd": 4.63}]}, {"target": "DLG4_2, P78352", "sequence (P78352 155-259)": "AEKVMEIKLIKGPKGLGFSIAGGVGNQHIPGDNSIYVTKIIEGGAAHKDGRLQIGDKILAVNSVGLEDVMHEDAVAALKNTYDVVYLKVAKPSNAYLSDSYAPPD", "test": "holdup assay", "parameters": "key: below the threshold = too weak to quantify, mostly under pKd 3.1 to 4", "details": "plain residues with an end cap or a label only (N-terminal biotin on a linker: ado-ado)", "values": [{"binder": "B1", "pKd": 4.95}]}, {"target": "MAGI1_1, Q96QZ7", "sequence (Q96QZ7 1-106)": "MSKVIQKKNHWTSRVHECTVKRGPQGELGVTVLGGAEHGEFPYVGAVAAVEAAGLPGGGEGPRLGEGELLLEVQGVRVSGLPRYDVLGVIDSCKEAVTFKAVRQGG", "test": "holdup assay", "parameters": "key: below the threshold = too weak to quantify, mostly under pKd 3.1 to 4", "details": "plain residues with an end cap or a label only (N-terminal biotin on a linker: ado-ado)", "values": [{"binder": "B1", "pKd": "below the threshold"}]}, {"target": "IL16_4, Q14005", "sequence (Q14005 1229-1329)": "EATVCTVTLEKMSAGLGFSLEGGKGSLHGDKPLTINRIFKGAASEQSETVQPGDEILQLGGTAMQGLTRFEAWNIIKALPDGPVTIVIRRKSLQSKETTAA", "test": "holdup assay", "parameters": "key: below the threshold = too weak to quantify, mostly under pKd 3.1 to 4", "details": "plain residues with an end cap or a label only (N-terminal biotin on a linker: ado-ado)", "values": [{"binder": "B1", "pKd": 3.67}]}, {"target": "GRIP2_4, Q9C0E4", "sequence (Q9C0E4 446-548)": "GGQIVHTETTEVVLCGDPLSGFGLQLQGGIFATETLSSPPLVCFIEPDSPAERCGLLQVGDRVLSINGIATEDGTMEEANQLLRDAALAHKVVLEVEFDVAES", "test": "holdup assay", "parameters": "key: below the threshold = too weak to quantify, mostly under pKd 3.1 to 4", "details": "plain residues with an end cap or a label only (N-terminal biotin on a linker: ado-ado)", "values": [{"binder": "B1", "pKd": "below the threshold"}]}, {"target": "Inadl_5, Q8NI35", "sequence (Q8NI35 673-780)": "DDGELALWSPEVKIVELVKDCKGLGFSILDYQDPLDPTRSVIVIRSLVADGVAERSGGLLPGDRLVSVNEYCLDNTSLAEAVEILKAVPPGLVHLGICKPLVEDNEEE", "test": "holdup assay", "parameters": "key: below the threshold = too weak to quantify, mostly under pKd 3.1 to 4", "details": "plain residues with an end cap or a label only (N-terminal biotin on a linker: ado-ado)", "values": [{"binder": "B1", "pKd": 3.87}]}, {"target": "GORASP1, Q9BQQ3", "sequence (Q9BQQ3 1-208)": "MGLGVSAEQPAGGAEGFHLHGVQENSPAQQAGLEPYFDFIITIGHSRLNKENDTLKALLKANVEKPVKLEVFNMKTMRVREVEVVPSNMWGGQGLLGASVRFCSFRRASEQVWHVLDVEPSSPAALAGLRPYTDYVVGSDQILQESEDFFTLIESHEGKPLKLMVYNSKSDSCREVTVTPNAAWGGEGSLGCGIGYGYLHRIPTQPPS", "test": "holdup assay", "parameters": "key: below the threshold = too weak to quantify, mostly under pKd 3.1 to 4", "details": "plain residues with an end cap or a label only (N-terminal biotin on a linker: ado-ado)", "values": [{"binder": "B1", "pKd": 4.72}]}, {"target": "GOPC, Q9HD26", "test": "holdup assay", "parameters": "key: below the threshold = too weak to quantify, mostly under pKd 3.1 to 4", "details": "plain residues with an end cap or a label only (N-terminal biotin on a linker: ado-ado)", "values": [{"binder": "B1", "pKd": 4.4}]}, {"target": "LNX1_1, Q8TBB1", "sequence (Q8TBB1 261-371)": "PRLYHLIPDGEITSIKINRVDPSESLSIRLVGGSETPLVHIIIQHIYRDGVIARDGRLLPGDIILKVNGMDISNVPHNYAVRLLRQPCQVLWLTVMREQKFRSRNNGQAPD", "test": "holdup assay", "parameters": "key: below the threshold = too weak to quantify, mostly under pKd 3.1 to 4", "details": "plain residues with an end cap or a label only (N-terminal biotin on a linker: ado-ado)", "values": [{"binder": "B1", "pKd": 4.67}]}, {"target": "Inadl_4, Q8NI35", "sequence (Q8NI35 547-651)": "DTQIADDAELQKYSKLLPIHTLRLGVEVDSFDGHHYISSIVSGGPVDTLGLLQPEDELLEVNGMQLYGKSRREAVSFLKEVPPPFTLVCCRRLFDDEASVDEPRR", "test": "holdup assay", "parameters": "key: below the threshold = too weak to quantify, mostly under pKd 3.1 to 4", "details": "plain residues with an end cap or a label only (N-terminal biotin on a linker: ado-ado)", "values": [{"binder": "B1", "pKd": "below the threshold"}]}, {"target": "HTRA1, Q92743", "sequence (Q92743 360-477)": "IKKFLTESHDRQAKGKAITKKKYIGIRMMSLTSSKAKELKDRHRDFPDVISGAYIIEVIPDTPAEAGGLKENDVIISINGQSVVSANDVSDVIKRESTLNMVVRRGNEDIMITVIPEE", "test": "holdup assay", "parameters": "key: below the threshold = too weak to quantify, mostly under pKd 3.1 to 4", "details": "plain residues with an end cap or a label only (N-terminal biotin on a linker: ado-ado)", "values": [{"binder": "B1", "pKd": 5.07}]}, {"target": "FRMPD3, Q5JV73", "sequence (Q5JV73 12-100)": "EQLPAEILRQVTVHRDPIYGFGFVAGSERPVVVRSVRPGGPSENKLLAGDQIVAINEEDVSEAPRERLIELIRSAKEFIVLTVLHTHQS", "test": "holdup assay", "parameters": "key: below the threshold = too weak to quantify, mostly under pKd 3.1 to 4", "details": "plain residues with an end cap or a label only (N-terminal biotin on a linker: ado-ado)", "values": [{"binder": "B1", "pKd": "below the threshold"}]}, {"target": "LDB3, O75112", "sequence (O75112 1-94)": "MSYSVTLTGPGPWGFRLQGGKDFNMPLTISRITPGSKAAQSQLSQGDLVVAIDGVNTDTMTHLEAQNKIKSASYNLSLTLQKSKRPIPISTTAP", "test": "holdup assay", "parameters": "key: below the threshold = too weak to quantify, mostly under pKd 3.1 to 4", "details": "plain residues with an end cap or a label only (N-terminal biotin on a linker: ado-ado)", "values": [{"binder": "B1", "pKd": "below the threshold"}]}, {"target": "IL16_3, Q14005", "sequence (Q14005 1107-1207)": "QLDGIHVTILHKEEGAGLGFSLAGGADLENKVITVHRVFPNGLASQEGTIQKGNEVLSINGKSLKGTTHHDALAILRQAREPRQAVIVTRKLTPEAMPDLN", "test": "holdup assay", "parameters": "key: below the threshold = too weak to quantify, mostly under pKd 3.1 to 4", "details": "plain residues with an end cap or a label only (N-terminal biotin on a linker: ado-ado)", "values": [{"binder": "B1", "pKd": "below the threshold"}]}, {"target": "T4, LNX2_2, Q8N448", "T4 sequence (Q8N448 334-432, limits assumed, looked up)": "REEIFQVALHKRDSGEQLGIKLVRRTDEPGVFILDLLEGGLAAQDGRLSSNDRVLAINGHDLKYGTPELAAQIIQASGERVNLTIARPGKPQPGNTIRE", "test": "holdup assay", "parameters": "key: below the threshold = too weak to quantify, mostly under pKd 3.1 to 4", "details": "plain residues with an end cap or a label only (N-terminal biotin on a linker: ado-ado)", "values": [{"binder": "B1", "pKd": 5.56}]}, {"target": "DLG1_2, Q12959", "sequence (Q12959 314-412)": "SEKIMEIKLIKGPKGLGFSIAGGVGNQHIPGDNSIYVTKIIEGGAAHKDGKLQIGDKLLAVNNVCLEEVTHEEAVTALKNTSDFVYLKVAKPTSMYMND", "test": "holdup assay", "parameters": "key: below the threshold = too weak to quantify, mostly under pKd 3.1 to 4", "details": "plain residues with an end cap or a label only (N-terminal biotin on a linker: ado-ado)", "values": [{"binder": "B1", "pKd": 5.2}]}, {"target": "PDLIM1, O00151", "sequence (O00151 1-87)": "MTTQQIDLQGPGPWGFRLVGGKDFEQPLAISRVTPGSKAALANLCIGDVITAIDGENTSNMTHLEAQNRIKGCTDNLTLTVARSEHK", "test": "holdup assay", "parameters": "key: below the threshold = too weak to quantify, mostly under pKd 3.1 to 4", "details": "plain residues with an end cap or a label only (N-terminal biotin on a linker: ado-ado)", "values": [{"binder": "B1", "pKd": "below the threshold"}]}, {"target": "GRASP, Q7Z6J2", "sequence (Q7Z6J2 96-193)": "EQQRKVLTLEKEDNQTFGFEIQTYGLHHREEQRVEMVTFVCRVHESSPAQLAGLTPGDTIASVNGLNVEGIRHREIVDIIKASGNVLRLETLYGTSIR", "test": "holdup assay", "parameters": "key: below the threshold = too weak to quantify, mostly under pKd 3.1 to 4", "details": "plain residues with an end cap or a label only (N-terminal biotin on a linker: ado-ado)", "values": [{"binder": "B1", "pKd": 4.65}]}, {"target": "T5, LIN7C, Q9NUP9", "T5 sequence (Q9NUP9 88-185, limits assumed, looked up)": "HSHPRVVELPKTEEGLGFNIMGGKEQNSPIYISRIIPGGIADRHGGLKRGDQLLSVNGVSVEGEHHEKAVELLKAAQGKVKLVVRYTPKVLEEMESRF", "test": "holdup assay", "parameters": "key: below the threshold = too weak to quantify, mostly under pKd 3.1 to 4", "details": "plain residues with an end cap or a label only (N-terminal biotin on a linker: ado-ado)", "values": [{"binder": "B1", "pKd": "below the threshold"}]}, {"target": "T6, PDZRN3_1, Q9UPQ7", "T6 sequence (Q9UPQ7 244-349, limits assumed, looked up)": "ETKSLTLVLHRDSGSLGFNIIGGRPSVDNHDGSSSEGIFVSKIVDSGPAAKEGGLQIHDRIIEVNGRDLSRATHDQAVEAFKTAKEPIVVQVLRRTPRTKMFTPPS", "test": "holdup assay", "parameters": "key: below the threshold = too weak to quantify, mostly under pKd 3.1 to 4", "details": "plain residues with an end cap or a label only (N-terminal biotin on a linker: ado-ado)", "values": [{"binder": "B1", "pKd": 3.48}]}, {"target": "TJP1_2, Q07157", "sequence (Q07157 181-274)": "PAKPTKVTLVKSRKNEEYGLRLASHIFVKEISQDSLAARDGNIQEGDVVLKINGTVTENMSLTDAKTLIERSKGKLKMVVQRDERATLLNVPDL", "test": "holdup assay", "parameters": "key: below the threshold = too weak to quantify, mostly under pKd 3.1 to 4", "details": "plain residues with an end cap or a label only (N-terminal biotin on a linker: ado-ado)", "values": [{"binder": "B1", "pKd": 3.56}]}, {"target": "DLG4_3, P78352", "sequence (P78352 306-403)": "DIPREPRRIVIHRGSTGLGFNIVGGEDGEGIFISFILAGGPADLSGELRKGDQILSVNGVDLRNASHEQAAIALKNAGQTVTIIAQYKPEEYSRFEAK", "test": "holdup assay", "parameters": "key: below the threshold = too weak to quantify, mostly under pKd 3.1 to 4", "details": "plain residues with an end cap or a label only (N-terminal biotin on a linker: ado-ado)", "values": [{"binder": "B1", "pKd": "below the threshold"}]}, {"target": "Inadl_8, Q8NI35", "sequence (Q8NI35 1425-1530)": "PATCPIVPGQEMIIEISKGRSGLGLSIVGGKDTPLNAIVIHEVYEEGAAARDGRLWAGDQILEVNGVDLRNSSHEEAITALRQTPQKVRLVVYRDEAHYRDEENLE", "test": "holdup assay", "parameters": "key: below the threshold = too weak to quantify, mostly under pKd 3.1 to 4", "details": "plain residues with an end cap or a label only (N-terminal biotin on a linker: ado-ado)", "values": [{"binder": "B1", "pKd": 4.19}]}, {"target": "DLG4_1, P78352", "sequence (P78352 62-152)": "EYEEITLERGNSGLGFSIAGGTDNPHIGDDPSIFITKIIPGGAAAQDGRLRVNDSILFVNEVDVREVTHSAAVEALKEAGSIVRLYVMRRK", "test": "holdup assay", "parameters": "key: below the threshold = too weak to quantify, mostly under pKd 3.1 to 4", "details": "plain residues with an end cap or a label only (N-terminal biotin on a linker: ado-ado)", "values": [{"binder": "B1", "pKd": 4.71}]}, {"target": "DLG2_3, Q15700", "test": "holdup assay", "parameters": "key: below the threshold = too weak to quantify, mostly under pKd 3.1 to 4", "details": "plain residues with an end cap or a label only (N-terminal biotin on a linker: ado-ado)", "values": [{"binder": "B1", "pKd": "below the threshold"}]}]}
